Results: the supplement of paper PMC12042874
± gives the uncertainty stated by the source.

Test: amyloid nucleation score (Sup35N fusion, yeast selection) (log enrichment); library NNK3; higher = more nucleation; inactive = no reads after selection
In short: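 On medium lacking adenine and uracil, psi-negative yeast expressing peptides of 20 random codons fused to Sup35N were grown 7 days at 30°C after a 24-hour induction with 100 μM copper sulfate. Illumina sequencing of input and output plasmid inserts gave the reads, and sequences under 100 input reads were excluded. The nucleation score is the DiMSum log enrichment of output over input reads, centred on the mode score of non-aggregating sequences.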

| Substance | amyloid nucleation score |
| --- | --- |
| CSVVSWFEAGFRFNDLMNGV | inactive |
| GRNRHTYDRLYCPFVRSLIV | inactive |
| LVPIVVGKRFPIYVGVGPKG | inactive |
| TYPSEVYFIMFAMFSSTCWS | inactive |
| WSCNISYTLLSMGRRLYSRR | inactive |
| KSLHTGGGLDSRYGS | inactive |
| GCISVVSL | inactive |
| SFDSLVISDTVSRDRCLQII | inactive |
| YLDKRYVVGVFMLDSNLDLS | inactive |
| PFSYDLRNFNSWQIGNGGLM | inactive |
| KVSMYRVVWCPASFGVIIVA | inactive |
| SLKCIRSVLNPWAGAALYPS | inactive |
| YSIKNGYGFRQSWYKQVLKL | inactive |
| RRNMWG | inactive |
| CGIMPLSHGIDLMFVRVTPG | inactive |
| SLLFRSLIWSTFDPCSELGP | inactive |
| NWLDWLGRPPRDIGAWNGSS | inactive |
| PRIFLSR | inactive |
| PPGLGYSMVFYSSVDMHMLS | inactive |
| GVAPYFQCVLIEEERVEGQG | inactive |
| RDRSVKRVVHSGFRFSIGEA | inactive |
| DLSSSGCKLSRIFHGHNWSR | inactive |
| LNYVIVDSLDKVVQITREYS | inactive |

| Substance | amyloid nucleation score |
| --- | --- |
| MSMRLRIYKFFEICANSMMP | inactive |
| ELISRMSFRSLCLAFFISVC | inactive |
| ELVCVA | inactive |
| RSEVRR | -0.013 ± 0.51 |
| QNRLQTSFMVGQRGNTLVTN | inactive |
| INTLYMTDRDRSLPESVQNL | inactive |
| GCHLFHWFIFAYCYHYEGTN | 1.91 ± 0.09 |
| PAGTICGCRHGRLWNGPSRW | inactive |
| LSEFYPAMRSTTTPVQNVSG | inactive |
| IYSVVGCWKPSSVSDMAGLL | inactive |
| EHGMVENRQRRFCLDWWDGM | inactive |
| LPAGFKSR | inactive |
| RIDRSYACALSWHVLYVNR | 0.436 ± 0.23 |
| KRDLSVIGKCTLNNVSNHCA | inactive |
| TWMKMSTEWRTLDLDCWNSS | 1.34 ± 0.13 |
| HPVLRIRLLREKMMRFS | inactive |
| NFLRAKDLEYRTV | -0.761 ± 1.1 |
| RLSRSRKRYFFGFR | inactive |
| TQPDLV | inactive |
| RVMMSAACHLILCWNWPKWK | inactive |
| KYRQIMNGFKFSRANSFVTV | inactive |
| LVSFWSVRFIICYLRLGLSC | inactive |
| MYTLCQMLNVRTRDMTCVTR | inactive |

| Substance | amyloid nucleation score |
| --- | --- |
| NYTVLYGNSLSFFRSHLCRV | inactive |
| VDKLGSYPMPLVLGVVNTYQ | inactive |
| FYSWDIHGCIVHSIYV | inactive |
| PFGWSVLGTGASGAEIQLVE | inactive |
| GSGRNLSVLVYRLWVDGPTG | inactive |
| YYVSRVSKMCWLRDVRWISI | inactive |
| EEMVSDRVRMLVTINHR | 0.661 ± 0.27 |
| TPYILLG | inactive |
| SFLSWVKYWERSCPDHSIWF | inactive |
| LYLRQKYLRALTNFNFPRAT | inactive |
| IYSWTGLSTTLKFLGMSLLL | -0.218 ± 0.71 |
| QIHNRTMPCWRSKATVLGKT | inactive |
| DFCMVVHCIKFMGLCRGGDV | 1.02 ± 0.17 |
| RTDYVISNVAMCNSLLC | 2.8 ± 0.082 |
| RFRSRS | -0.02 ± 1.1 |
| YYYGKWYLYEKHSVVFRGCR | inactive |
| VVCGANHLRIFFVNRVMWD | inactive |
| VLCGLARVKEVIASRRWECG | inactive |
| YYLSLHR | inactive |
| GDMFGQPCRTCMFDLLKPVS | inactive |
| TFIFDFAAFMNMVNGFSVLG | 2.23 ± 0.088 |
| SFFPIPIWCD | inactive |
| KHMSHRCILMLSPYSDRNIM | inactive |

| Substance | amyloid nucleation score |
| --- | --- |
| RRLHSIAFVHRCLIIICCMG | inactive |
| ARFISVCEHEARLRERTCMC | inactive |
| PRRTNKVARGGRHARVRKVE | inactive |
| SALVLPRSVSVDLIGVWDFK | inactive |
| RVDPTSRMSGIYHWILT | inactive |
| GMTVLLSMVI | inactive |
| NSDNHYFQRTMTNFANGKGC | inactive |
| PDHEMGSHLLV | inactive |
| VSLFRSLGNLSFSSIWLPSP | inactive |
| NSDVYVSFLSVCVFAVRCLL | inactive |
| NLGTTLYVEICNWRIVLYIV | inactive |
| CKFSDW | inactive |
| DGLKNYRWYRFNTLDDGLAG | inactive |
| SFVVN | inactive |
| FITFHENDAVELEG | inactive |
| TYLVMS | inactive |
| GYAISRFVFDTFRIFAVL | inactive |
| IDLVVSQVWQSTGAVVALWH | -0.301 ± 0.83 |
| KKQGSWRKNITISRVCVVLG | inactive |
| GLISPRYATSSWLCQPIINF | inactive |
| RWAELTEQTCS | inactive |
| ASRTAHVSEVQFGCAPGSER | inactive |
| CWFFV | 0.242 ± 0.39 |

| Substance | amyloid nucleation score |
| --- | --- |
| CRCHRLVNIPSMFWCLKFVG | inactive |
| YGSNSLPYKTGVYVKLSCN | inactive |
| PAADHLAKRCSMICSSSFAL | inactive |
| YSVNMLFAAS | inactive |
| LNALLGQYSDISMRISLNVS | inactive |
| ALWNTFFLCENTFRMVGFVC | inactive |
| VIFFSRSAYYKVISGRVI | inactive |
| NSGAWLSMEMMPCRMSVYAC | inactive |
| NHYWQ | inactive |
| PLWSRCLYRLSAGGACSVWK | inactive |
| IMTVILSPLLTCNYFCCR | 2.35 ± 0.085 |
| TWFTSFYCFSNNAYLYF | 1.8 ± 0.066 |
| FGWAWPFFTKVHHTSTV | inactive |
| PVGHSSMSLYRGR | inactive |
| RGRIVLNQRLNCDDEDGISE | inactive |
| QLVLPSFMVTLSCG | inactive |
| SNFLLSSLIHLVPMMSL | inactive |
| WGRGNAAMYGVFRSGNLLVI | inactive |
| ALNSLYTFMDRNNRELECGL | -0.688 ± 0.88 |
| YYSSWLFTGMVGSYTFTALC | inactive |
| EDLMLVQF | inactive |
| YDRNLNMCLQEMHRNIR | inactive |
| YDKQENVEGLFALF | inactive |

| Substance | amyloid nucleation score |
| --- | --- |
| PWFTMVRIGEMVLYLRMQRR | inactive |
| SPFCFSCIHACWGNEKIRWV | inactive |
| CSIHL | inactive |
| RCFYKRYNYLS | inactive |
| IFNNYIIYTSYKEV | 3.49 ± 0.077 |
| RDYAFNPMFCCATNAKFMKG | 1.96 ± 0.06 |
| ACFVKY | inactive |
| VVIHRSSSISGT | inactive |
| WLCCNKTETPQSTRRWQEDD | inactive |
| IPVNYLASDMFN | inactive |
| ASIHMFVLYRWSFG | 0.013 ± 0.75 |
| MMNSWDPVMLYSYGNTEVVH | inactive |
| MWHLTF | inactive |
| ALFLIFSRELHSNDNLLECS | 0.367 ± 0.14 |
| AVLSLCINGIVALKGDSGCC | 0.478 ± 0.21 |
| RFRMHIIYKRKGIACVRSTS | inactive |
| TLGGEMQFVKMFCLLYFNCG | inactive |
| FLPRFGNHLTIRQKVRRTSG | inactive |
| YVCDRL | inactive |
| YHTYKDSRTGFFMGQHSCMS | inactive |
| NFTMNLIIGCF | 1.3 ± 0.12 |
| LKCDLMWLMLDNYTAVDSFR | inactive |
| WVGLVPYPMVAQEVFNHQD | inactive |

| Substance | amyloid nucleation score |
| --- | --- |
| LNWLAFSR | inactive |
| RSAFGIGFPGGYCVLDHYER | inactive |
| MYGPMVWVDLYTCKTHRGAS | inactive |
| MDQMPKKYLVLAAAAVVRMV | inactive |
| HSPKPKGWFDGTNSRDGKLY | inactive |
| FNVRRHHYYGMCPLLISRVR | inactive |
| NVGTS | inactive |
| YLDRKVCSGNALRYLK | inactive |
| LINKLENLIYSG | inactive |
| HVFLLHVMAFYFDLSCFG | inactive |
| PWCVKIHRWVLYWSYKLSIS | inactive |
| KTWYWVFMLAVFRFIYLNMR | inactive |
| VSHTSNTTYRWRMFIYWSAF | 0.104 ± 0.26 |
| ETGMLCSGYCKGVCARDDPG | inactive |
| IMCSGFFDTVKFGWSLLSFS | 0.521 ± 0.24 |
| ALIRITRYYLSFTGY | inactive |
| TSTYANKALTVLE | inactive |
| SLVIAQARANRNILLLTVAR | inactive |
| WIFRFAYVVHDAWFSENRYP | inactive |
